Assay results reported in patent US20100260668A1 (published 2010).

target: T1, VEGF (UniProt P15692-4 27-191); assay: BIACORE SPR
T1 construct: Bought reagent; also called vascular endothelial growth factor
T1 sequence (P15692 other isoform, or with tags, fused parts or gaps limits assumed): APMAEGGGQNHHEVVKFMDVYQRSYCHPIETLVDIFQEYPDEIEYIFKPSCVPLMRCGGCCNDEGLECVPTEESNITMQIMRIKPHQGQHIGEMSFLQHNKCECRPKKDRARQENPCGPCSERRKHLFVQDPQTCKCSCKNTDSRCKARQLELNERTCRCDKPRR

| Binder | Kd [nM] | koff [s⁻¹] | kon [M⁻¹ s⁻¹] |
| --- | --- | --- | --- |
| DVD454 (bispecific antibody, human IgG1, kappa, DVD-Ig; N-term; AB014 (VEGF), C-term; AB069 (DLL4); HC linker long, LC linker short; also called DVD454H; DVD454L) heavy: not shown light: DIQMTQSPSSLSASVGDRVTITCSASQDISNYLNWYQQKPGKAPKVLIYFTSSLHSGVPSRFSGSGSGTDFTLTISSLQPEDFATYYCQQYSTVPWTFGQGTKVEIKRTVAAPDIVMTQSPDSLAVSLGERATISCRASESVDNYGISFMKWFQQKPGQPPKLLIYAASNQGSGVPDRFSGSGSGTDFTLTISSLQAEDVAVYYCQQSKEVPWTFGGGTKVEIKRTVAAPSVFIFPPSDEQLKSGTASVVCLLNNFYPREAKVQWKVDNALQSGNSQESVTEQDSKDSTYSLSSTLTLSKADYEKHKVYACEVTHQGLSSPVTKSFNRGEC | 0.079 | 0.000126 | 1.59e+06 |
| DVD512 (bispecific antibody, human IgG1, lambda, L234A L235A, DVD-Ig; N-term; AB014 (VEGF), C-term; AB073 (DLL4); HC linker short, LC linker short; also called DVD512H; DVD512L) heavy: not shown light: DIQMTQSPSSLSASVGDRVTITCSASQDISNYLNWYQQKPGKAPKVLIYFTSSLHSGVPSRFSGSGSGTDFTLTISSLQPEDFATYYCQQYSTVPWTFGQGTKVEIKRTVAAPQAVVTQESALTTSPGETVTLTCRSSTGAVTTSNYANWVQEKPDHLFTGLIGGTNNRAPGVPARFSGSLIGDKAALTITGAQTEDEAIYFCALWYSNHWVFGGGTKLTVLGQPKAAPSVTLFPPSSEELQANKATLVCLISDFYPGAVTVAWKADSSPVKAGVETTTPSKQSNNKYAASSYLSLTPEQWKSHRSYSCQVTHEGSTVEKTVAPTECS | 0.153 | 0.000143 | 939000 |
| DVD488 (bispecific antibody, human IgG1, kappa, DVD-Ig; N-term; AB014 (VEGF), C-term; AB072 (DLL4); HC linker short, LC linker short; also called DVD488H; DBD488L) heavy: not shown light: DIQMTQSPSSLSASVGDRVTITCSASQDISNYLNWYQQKPGKAPKVLIYFTSSLHSGVPSRFSGSGSGTDFTLTISSLQPEDFATYYCQQYSTVPWTFGQGTKVEIKRTVAAPDIQMTQSSSYLSVSLGGRVTITCKASDHINNWLAWYQQKPGNAPRLLISGATSLETGVPSRFSGSGSGKDYTLSITSLQTEDVATYYCQQYWSIPLTFGAGTKLELKRTVAAPSVFIFPPSDEQLKSGTASVVCLLNNFYPREAKVQWKVDNALQSGNSQESVTEQDSKDSTYSLSSTLTLSKADYEKHKVYACEVTHQGLSSPVTKSFNRGEC | 0.536 | 0.000374 | 699000 |
| DVD500 (bispecific antibody, human IgG1, kappa, DVD-Ig; N-term; AB014 (VEGF), C-term; AB072 (DLL4); HC linker long, LC linker short; also called DVD500H; DVD500L) heavy: not shown light: DIQMTQSPSSLSASVGDRVTITCSASQDISNYLNWYQQKPGKAPKVLIYFTSSLHSGVPSRFSGSGSGTDFTLTISSLQPEDFATYYCQQYSTVPWTFGQGTKVEIKRTVAAPDIQMTQSSSYLSVSLGGRVTITCKASDHINNWLAWYQQKPGNAPRLLISGATSLETGVPSRFSGSGSGKDYTLSITSLQTEDVATYYCQQYWSIPLTFGAGTKLELKRTVAAPSVFIFPPSDEQLKSGTASVVCLLNNFYPREAKVQWKVDNALQSGNSQESVTEQDSKDSTYSLSSTLTLSKADYEKHKVYACEVTHQGLSSPVTKSFNRGEC | 0.504 | 0.000248 | 492000 |
| DVD485 (bispecific antibody, human IgG1, kappa, DVD-Ig; N-term; AB015 (DLL4), C-term; AB071 (VEGF); HC linker short, LC linker long; also called DVD485H; DVD485L) heavy: not shown light: DIQMTQSPSSLSASVGDRVTITCRASQDVSTAVAWYQQKPGKAPKLLIYSASFLYSGVPSRFSGSGSGTDFTLTISSLQPEDFATTYYCQQSYTGTVTFGQGTKVEIKRTVAAPSVFIFPPDIQMTQSPSSLSASVGDRVTITCRASQVIRRSLAWYQQKPGKAPKLLIYAASNLASGVPSRFSGSGSGTDFTLTISSLQPEDFATYYCQQSNTSPLTFGQGTKVEIKRTVAAPSVFIFPPSDEQLKSGTASVVCLLNNFYPREAKVQWKVDNALQSGNSQESVTEQDSKDSTYSLSSTLTLSKADYEKHKVYACEVTHQGLSSPVTKSFNRGEC | 0.372 | – | – |
| DVD467 (bispecific antibody, human IgG1, kappa, DVD-Ig; N-term; AB015 (DLL4), C-term; AB071 (VEGF); HC linker short, LC linker short; also called DVD467H; DVD467L) heavy: not shown light: DIQMTQSPSSLSASVGDRVTITCRASQDVSTAVAWYQQKPGKAPKLLIYSASFLYSGVPSRFSGSGSGTDFTLTISSLQPEDFATTYYCQQSYTGTVTFGQGTKVEIKRTVAAPDIQMTQSPSSLSASVGDRVTITCRASQVIRRSLAWYQQKPGKAPKLLIYAASNLASGVPSRFSGSGSGTDFTLTISSLQPEDFATYYCQQSNTSPLTFGQGTKVEIKRTVAAPSVFIFPPSDEQLKSGTASVVCLLNNFYPREAKVQWKVDNALQSGNSQESVTEQDSKDSTYSLSSTLTLSKADYEKHKVYACEVTHQGLSSPVTKSFNRGEC | 1.33 | 0.000236 | 177000 |
| DVD494 (bispecific antibody, human IgG1, kappa, DVD-Ig; N-term; AB014 (VEGF), C-term; AB072 (DLL4); HC linker long, LC linker long; also called DVD494H; DVD494L) heavy: not shown light: DIQMTQSPSSLSASVGDRVTITCSASQDISNYLNWYQQKPGKAPKVLIYFTSSLHSGVPSRFSGSGSGTDFTLTISSLQPEDFATYYCQQYSTVPWTFGQGTKVEIKRTVAAPSVFIFPPDIQMTQSSSYLSVSLGGRVTITCKASDHINNWLAWYQQKPGNAPRLLISGATSLETGVPSRFSGSGSGKDYTLSITSLQTEDVATYYCQQYWSIPLTFGAGTKLELKRTVAAPSVFIFPPSDEQLKSGTASVVCLLNNFYPREAKVQWKVDNALQSGNSQESVTEQDSKDSTYSLSSTLTLSKADYEKHKVYACEVTHQGLSSPVTKSFNRGEC | 0.566 | 0.0176 | 3.11e+07 |
| DVD506 (bispecific antibody, human IgG1, kappa, DVD-Ig; N-term; AB014 (VEGF), C-term; AB072 (DLL4); HC linker short, LC linker long; also called DVD506H; DVD506L) heavy: not shown light: DIQMTQSPSSLSASVGDRVTITCSASQDISNYLNWYQQKPGKAPKVLIYFTSSLHSGVPSRFSGSGSGTDFTLTISSLQPEDFATYYCQQYSTVPWTFGQGTKVEIKRTVAAPSVFIFPPDIQMTQSSSYLSVSLGGRVTITCKASDHINNWLAWYQQKPGNAPRLLISGATSLETGVPSRFSGSGSGKDYTLSITSLQTEDVATYYCQQYWSIPLTFGAGTKLELKRTVAAPSVFIFPPSDEQLKSGTASVVCLLNNFYPREAKVQWKVDNALQSGNSQESVTEQDSKDSTYSLSSTLTLSKADYEKHKVYACEVTHQGLSSPVTKSFNRGEC | 0.281 | 0.000171 | 606000 |
| DVD518 (bispecific antibody, human IgG1, kappa, lambda, DVD-Ig; N-term; AB014 (VEGF), C-term; AB073 (DLL4); HC linker long, LC linker long; also called DVD518H; DVD518L) heavy: not shown light: DIQMTQSPSSLSASVGDRVTITCSASQDISNYLNWYQQKPGKAPKVLIYFTSSLHSGVPSRFSGSGSGTDFTLTISSLQPEDFATYYCQQYSTVPWTFGQGTKVEIKRTVAAPSVFIFPPQAVVTQESALTTSPGETVTLTCRSSTGAVTTSNYANWVQEKPDHLFTGLIGGTNNRAPGVPARFSGSLIGDKAALTITGAQTEDEAIYFCALWYSNHWVFGGGTKLTVLGQPKAAPSVTLFPPSSEELQANKATLVCLISDFYPGAVTVAWKADSSPVKAGVETTTPSKQSNNKYAASSYLSLTPEQWKSHRSYSCQVTHEGSTVEKTVAPTECS | 0.434 | 0.125 | 2.88e+08 |

Second part, the binder after the results:

| Kd [nM] | koff [s⁻¹] | kon [M⁻¹ s⁻¹] | Binder |
| --- | --- | --- | --- |
| 0.113 | 0.000188 | 1.67e+06 | DVD524 (bispecific antibody, human IgG1, lambda, DVD-Ig; N-term; AB014 (VEGF), C-term; AB073 (DLL4); HC linker long, LC linker short; also called DVD524H; DVD524L) heavy: not shown light: DIQMTQSPSSLSASVGDRVTITCSASQDISNYLNWYQQKPGKAPKVLIYFTSSLHSGVPSRFSGSGSGTDFTLTISSLQPEDFATYYCQQYSTVPWTFGQGTKVEIKRTVAAPQAVVTQESALTTSPGETVTLTCRSSTGAVTTSNYANWVQEKPDHLFTGLIGGTNNRAPGVPARFSGSLIGDKAALTITGAQTEDEAIYFCALWYSNHWVFGGGTKLTVLGQPKAAPSVTLFPPSSEELQANKATLVCLISDFYPGAVTVAWKADSSPVKAGVETTTPSKQSNNKYAASSYLSLTPEQWKSHRSYSCQVTHEGSTVEKTVAPTECS |
| 0.271 | 0.000136 | 504000 | DVD448 (bispecific antibody, human IgG1, kappa, DVD-Ig; N-term; AB014 (VEGF), C-term; AB069 (DLL4); HC linker long, LC linker long; also called DVD448H; DVD448L) heavy: not shown light: DIQMTQSPSSLSASVGDRVTITCSASQDISNYLNWYQQKPGKAPKVLIYFTSSLHSGVPSRFSGSGSGTDFTLTISSLQPEDFATYYCQQYSTVPWTFGQGTKVEIKRTVAAPSVFIFPPDIVMTQSPDSLAVSLGERATISCRASESVDNYGISFMKWFQQKPGQPPKLLIYAASNQGSGVPDRFSGSGSGTDFTLTISSLQAEDVAVYYCQQSKEVPWTFGGGTKVEIKRTVAAPSVFIFPPSDEQLKSGTASVVCLLNNFYPREAKVQWKVDNALQSGNSQESVTEQDSKDSTYSLSSTLTLSKADYEKHKVYACEVTHQGLSSPVTKSFNRGEC |
| 0.174 | 0.000228 | 1.32e+06 | DVD460 (bispecific antibody, human IgG1, kappa, DVD-Ig; N-term; AB014 (VEGF), C-term; AB069 (DLL4); HC linker short, LC linker long; also called DVD460H; DVD460L) heavy: not shown light: DIQMTQSPSSLSASVGDRVTITCSASQDISNYLNWYQQKPGKAPKVLIYFTSSLHSGVPSRFSGSGSGTDFTLTISSLQPEDFATYYCQQYSTVPWTFGQGTKVEIKRTVAAPSVFIFPPDIVMTQSPDSLAVSLGERATISCRASESVDNYGISFMKWFQQKPGQPPKLLIYAASNQGSGVPDRFSGSGSGTDFTLTISSLQAEDVAVYYCQQSKEVPWTFGGGTKVEIKRTVAAPSVFIFPPSDEQLKSGTASVVCLLNNFYPREAKVQWKVDNALQSGNSQESVTEQDSKDSTYSLSSTLTLSKADYEKHKVYACEVTHQGLSSPVTKSFNRGEC |
| 1.27 | 0.000265 | 209000 | DVD473 (bispecific antibody, human IgG1, kappa, DVD-Ig; N-term; AB015 (DLL4), C-term; AB071 (VEGF); HC linker long, LC linker long; also called DVD473H; DVD473L) heavy: not shown light: DIQMTQSPSSLSASVGDRVTITCRASQDVSTAVAWYQQKPGKAPKLLIYSASFLYSGVPSRFSGSGSGTDFTLTISSLQPEDFATTYYCQQSYTGTVTFGQGTKVEIKRTVAAPSVFIFPPDIQMTQSPSSLSASVGDRVTITCRASQVIRRSLAWYQQKPGKAPKLLIYAASNLASGVPSRFSGSGSGTDFTLTISSLQPEDFATYYCQQSNTSPLTFGQGTKVEIKRTVAAPSVFIFPPSDEQLKSGTASVVCLLNNFYPREAKVQWKVDNALQSGNSQESVTEQDSKDSTYSLSSTLTLSKADYEKHKVYACEVTHQGLSSPVTKSFNRGEC |
| 0.86 | 0.000257 | 299000 | DVD479 (bispecific antibody, human IgG1, kappa, DVD-Ig; N-term; AB015 (DLL4), C-term; AB071 (VEGF); HC linker long, LC linker short; also called DVD479H; DVD479L) heavy: not shown light: DIQMTQSPSSLSASVGDRVTITCRASQDVSTAVAWYQQKPGKAPKLLIYSASFLYSGVPSRFSGSGSGTDFTLTISSLQPEDFATTYYCQQSYTGTVTFGQGTKVEIKRTVAAPDIQMTQSPSSLSASVGDRVTITCRASQVIRRSLAWYQQKPGKAPKLLIYAASNLASGVPSRFSGSGSGTDFTLTISSLQPEDFATYYCQQSNTSPLTFGQGTKVEIKRTVAAPSVFIFPPSDEQLKSGTASVVCLLNNFYPREAKVQWKVDNALQSGNSQESVTEQDSKDSTYSLSSTLTLSKADYEKHKVYACEVTHQGLSSPVTKSFNRGEC |
| 0.136 | 0.000171 | 1.26e+06 | DVD530 (bispecific antibody, human IgG1, kappa, lambda, L234A L235A, DVD-Ig; N-term; AB014 (VEGF), C-term; AB073 (DLL4); HC linker short, LC linker long; also called DVD530H; DVD530L) heavy: not shown light: DIQMTQSPSSLSASVGDRVTITCSASQDISNYLNWYQQKPGKAPKVLIYFTSSLHSGVPSRFSGSGSGTDFTLTISSLQPEDFATYYCQQYSTVPWTFGQGTKVEIKRTVAAPSVFIFPPQAVVTQESALTTSPGETVTLTCRSSTGAVTTSNYANWVQEKPDHLFTGLIGGTNNRAPGVPARFSGSLIGDKAALTITGAQTEDEAIYFCALWYSNHWVFGGGTKLTVLGQPKAAPSVTLFPPSSEELQANKATLVCLISDFYPGAVTVAWKADSSPVKAGVETTTPSKQSNNKYAASSYLSLTPEQWKSHRSYSCQVTHEGSTVEKTVAPTECS |
